This note sets out measurements from paper PMC9220312.

The assay has as its target mouse thrombomodulin (endogenous, lung) (mouse (endogenous in mouse lung)) (UniProt P15306).
Chain of UniProt P15306 (P15306 17-577): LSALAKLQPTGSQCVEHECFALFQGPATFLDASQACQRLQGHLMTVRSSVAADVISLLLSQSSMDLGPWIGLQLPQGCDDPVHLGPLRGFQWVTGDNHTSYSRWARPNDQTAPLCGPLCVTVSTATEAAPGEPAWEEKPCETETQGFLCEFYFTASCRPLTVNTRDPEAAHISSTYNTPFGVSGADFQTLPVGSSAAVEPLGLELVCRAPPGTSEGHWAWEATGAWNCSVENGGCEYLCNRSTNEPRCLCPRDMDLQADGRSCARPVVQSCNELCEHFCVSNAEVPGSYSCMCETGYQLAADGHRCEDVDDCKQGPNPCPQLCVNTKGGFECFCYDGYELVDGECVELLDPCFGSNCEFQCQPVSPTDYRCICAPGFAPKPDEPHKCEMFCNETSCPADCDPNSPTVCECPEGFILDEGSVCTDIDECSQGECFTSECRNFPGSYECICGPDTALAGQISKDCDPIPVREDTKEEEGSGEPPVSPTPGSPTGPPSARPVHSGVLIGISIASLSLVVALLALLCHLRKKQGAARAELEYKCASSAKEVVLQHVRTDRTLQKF

In turn, “recombinant human His-tagged fragment of Angiopoietin-2 (ab220589, Abcam) (from UniProt O15123 19-496) (domain or fragment)” yielded a tail bleeding time in mice 2 h after i.p. injection of 8 nmol human ANGPT2 of 50%.
